Test results from paper doi:10.1101/743492.

Target: mCherry-labeled WASp (Drosophila melanogaster)
Assay: FRET or BRET

FRET probability: 0.24
Substance: eGFP-labeled Cdc42 (from UniProt P40793 1-191) (natural protein)
